# B1: Ras-related protein Rab-38 (Homo sapiens), P57729 (parent)
# chain: MQAPHKEHLYKLLVIGDLGVGKTSIIKRYVHQNFSSHYRATIGVDFALKVLHWDPETVVRLQLWDIAGQERFGNMTRVYYREAMGAFIVFDVTRPATFEAVAKWKNDLDSKLSLPNGKPVSVVLLANKCDQGKDVLMNNGLKMDQFCKEHGFVGWFETSAKENINIDEASRCLVKHILANECDLMESIEPDVVKPHLTSTKVASCSGCAKS
# Variants of: B1
# Details: with lrrk2_human LRRK2, Q5S007
# lrrk2_human LRRK2, Q5S007, sequence (Q5S007 whole entry): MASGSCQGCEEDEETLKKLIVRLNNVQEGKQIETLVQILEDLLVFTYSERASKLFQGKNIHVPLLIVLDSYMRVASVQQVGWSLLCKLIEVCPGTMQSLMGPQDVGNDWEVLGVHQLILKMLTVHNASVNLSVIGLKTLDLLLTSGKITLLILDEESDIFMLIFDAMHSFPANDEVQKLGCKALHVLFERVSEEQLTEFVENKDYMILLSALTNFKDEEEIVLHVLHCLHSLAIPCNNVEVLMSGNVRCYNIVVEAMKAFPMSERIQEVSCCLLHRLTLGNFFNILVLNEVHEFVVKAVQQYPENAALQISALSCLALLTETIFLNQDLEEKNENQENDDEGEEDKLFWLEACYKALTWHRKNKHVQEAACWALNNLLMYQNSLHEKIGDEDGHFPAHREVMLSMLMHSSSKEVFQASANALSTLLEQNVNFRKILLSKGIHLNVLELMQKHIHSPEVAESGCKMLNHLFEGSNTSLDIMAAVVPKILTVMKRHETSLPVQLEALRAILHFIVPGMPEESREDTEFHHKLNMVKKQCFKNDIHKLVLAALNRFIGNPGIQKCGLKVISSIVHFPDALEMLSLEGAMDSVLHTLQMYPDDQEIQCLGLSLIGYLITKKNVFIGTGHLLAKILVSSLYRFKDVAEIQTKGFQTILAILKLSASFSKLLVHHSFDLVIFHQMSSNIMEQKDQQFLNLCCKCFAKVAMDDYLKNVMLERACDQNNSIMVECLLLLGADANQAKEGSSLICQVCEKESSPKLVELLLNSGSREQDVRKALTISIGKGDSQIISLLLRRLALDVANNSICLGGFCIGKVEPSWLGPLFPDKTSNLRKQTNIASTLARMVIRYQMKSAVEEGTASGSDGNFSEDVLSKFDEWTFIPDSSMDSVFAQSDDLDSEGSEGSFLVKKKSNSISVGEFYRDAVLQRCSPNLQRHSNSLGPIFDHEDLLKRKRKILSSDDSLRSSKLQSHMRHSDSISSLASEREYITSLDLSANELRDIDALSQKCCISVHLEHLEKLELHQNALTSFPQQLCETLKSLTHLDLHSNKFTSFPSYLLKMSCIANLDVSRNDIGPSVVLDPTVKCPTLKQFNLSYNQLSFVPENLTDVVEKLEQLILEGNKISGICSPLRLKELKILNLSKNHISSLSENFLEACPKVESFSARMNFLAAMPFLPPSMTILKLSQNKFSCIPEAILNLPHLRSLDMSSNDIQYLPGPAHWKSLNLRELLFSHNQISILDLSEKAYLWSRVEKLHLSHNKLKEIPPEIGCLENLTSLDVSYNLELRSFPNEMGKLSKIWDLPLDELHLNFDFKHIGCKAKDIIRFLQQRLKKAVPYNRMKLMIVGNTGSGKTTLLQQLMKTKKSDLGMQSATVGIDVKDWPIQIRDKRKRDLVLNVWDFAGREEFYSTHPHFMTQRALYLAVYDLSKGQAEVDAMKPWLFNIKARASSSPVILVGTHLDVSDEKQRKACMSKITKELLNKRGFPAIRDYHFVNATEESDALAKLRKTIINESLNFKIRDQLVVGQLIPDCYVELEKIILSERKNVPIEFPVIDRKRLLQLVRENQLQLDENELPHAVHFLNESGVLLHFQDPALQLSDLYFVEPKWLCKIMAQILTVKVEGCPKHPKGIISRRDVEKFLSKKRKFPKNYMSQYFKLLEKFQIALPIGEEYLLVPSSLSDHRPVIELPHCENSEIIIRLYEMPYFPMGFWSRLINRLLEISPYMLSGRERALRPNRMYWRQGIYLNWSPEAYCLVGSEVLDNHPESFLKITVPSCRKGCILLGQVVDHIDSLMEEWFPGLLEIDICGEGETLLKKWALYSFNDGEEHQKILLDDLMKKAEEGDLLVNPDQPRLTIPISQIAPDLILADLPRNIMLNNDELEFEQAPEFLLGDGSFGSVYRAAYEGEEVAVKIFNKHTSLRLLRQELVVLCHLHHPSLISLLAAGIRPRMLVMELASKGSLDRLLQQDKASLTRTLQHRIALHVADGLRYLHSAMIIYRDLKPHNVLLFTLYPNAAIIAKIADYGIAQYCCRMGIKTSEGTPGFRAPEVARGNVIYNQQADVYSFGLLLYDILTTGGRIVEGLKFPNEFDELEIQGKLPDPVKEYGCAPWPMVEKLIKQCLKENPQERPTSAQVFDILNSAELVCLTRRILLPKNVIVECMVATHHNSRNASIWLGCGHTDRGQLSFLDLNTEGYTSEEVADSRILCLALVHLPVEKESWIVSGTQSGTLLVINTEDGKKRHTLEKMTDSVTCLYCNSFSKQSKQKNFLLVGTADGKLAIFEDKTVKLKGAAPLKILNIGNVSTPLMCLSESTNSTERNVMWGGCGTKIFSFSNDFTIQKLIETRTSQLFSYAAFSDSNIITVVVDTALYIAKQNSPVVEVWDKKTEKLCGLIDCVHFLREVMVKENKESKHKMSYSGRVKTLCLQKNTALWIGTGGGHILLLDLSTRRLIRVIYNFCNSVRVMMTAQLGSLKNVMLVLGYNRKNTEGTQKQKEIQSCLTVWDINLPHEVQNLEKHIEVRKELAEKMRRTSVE
row,Variant,effect of a mutation on the interaction
1,R39Q,decreasing interaction strength
2,I42A,with no effect

# Further lines, results first:
row,effect of a mutation on the interaction,Variant
1,with no effect,I42E
2,with no effect,R77Q;R81Q
